14 sequences from the DeepSol protein solubility set can be followed below.

This data set can be described thus: soluble on expression in E. coli; label from the status in PepcDB or PDB records.
For the sequence “MKRRRKSGEKVQMHRFALPLCYGSEAPYYYYEVAPHEREERFHLTSELCVMDDEHYFIRGCLEIPIIDYHENFIWTVWVSLSKESYDEVLEKWDERGRENSDPYFGWLSVEMPVYPETLNLKTNVHIREVGTAPYVELEPTEHPLAIEQRNGITLERVKEIQEMIQRHS”, the “soluble on expression in E. coli” value is reported as “not soluble”.

With “MTEKKFIQDPWAKMTTRNGLAGDEVISALQKSIRRGKEKDACEFAYEMYITSPQFEEKLWRRLLAISVEDIGMGNPIAALMINNLNMMRKEFQYNESDRAMFFFHAIRYLCGSEKDRSSDLLKNIVIKSFAMGYVPEIPDIALDKHTTRGQEMGRGSEHFLHEASKVIPQAKVENDYKEQYEEIIKKYDPNHVVPSTFVFNPWQVLEHHHHHH”, the “soluble on expression in E. coli” value is on record as “not soluble”.

For the sequence “MVKRREAFEIEGKRVIAGSQMGIKLPAAKLYTDTQLDIHVEVFHGVKPGPTLLVCAAIHGDELNGIEICRRLLGRVNPKNLAGTLIVVPIVNVFGFIQQSRYLPDRRDLNRCFPGSSKGALASRLANLFATQLLVHATHVIDLHTGAIHRDNLPQIRCDTNDETMLAMANAFGAPLIMHSKARSVSMRGYANQQGIPCILYEAGEALRFSELAIKSGLKGVLNVMRSLGMLKGRVSNKIASVSAIRSYWIRSESDGLVNMKLKLGQRVNKGYIIAHIVSPHGGDSVAIRAPTDGIIIGISNIPVTNEGEGMFHIAQFEGDEIEIANEQLDEFLMEYA”, the “soluble on expression in E. coli” value is reported as “not soluble”.

As for “MGSDKIHHHHHHMTTDHPSAYCFFQDLAPRPPLDAAFDRDYLLYAIRGALRVSVAGESWLLPPSFAAWLPANTPISVDIDKPVTTCSVLARPGLCTGLPEKACVFQMSPMARQMIHYCKDWGPDAAHPAQAEGFFLALLHVCADLAVKSVDVKRPTATDPVLRKAIDITEAHLAQAITANEIARKVNLSERSMQRHFQMDVGMTWSQTLTQLRMIHAVALLAEGKLSIIQIAGYTGFQSLSAFNRAFRTFAATTPTKFRKALLD”, the “soluble on expression in E. coli” value is “not soluble”.

Turning to “MGNNVVVLGTQWGDEGKGKIVDLLTERAKYVVRYQGGHNAGHTLVINGEKTVLHLIPSGILRENVTSIIGNGVVLSPAALMKEMKELEDRGIPVRERLLLSEACPLILDYHVALDNAREKARGAKAIGTTGRGIGPAYEDKVARRGLRVGDLFDKETFAEKLKEVMEYHNFQLVNYYKAEAVDYQKVLDDTMAVADILTSMVVDVSDLLDQARQRGDFVMFEGAQGTLLDIDHGTYPYVTSSNTTAGGVATGSGLGPRYVDYVLGILKAYSTRVGAGPFPTELFDETGEFLCKQGNEFGATTGRRRRTGWLDTVAVRRAVQLNSLSGFCLTKLDVLDGLKEVKLCVAYRMPDGREVTTTPLAADDWKGVEPIYETMPGWSESTFGVKDRSGLPQAALNYIKRIEELTGVPIDIISTGPDRTETMILRDPFDA”, the “soluble on expression in E. coli” value is given as “soluble”.

Turning to “MRQIVPKVVVVGAGMGGLASAIRLARAGCEVTLLEAREAPGGRMRTLPSVAGPVDAGPTVLTLREVFDDIFEVCGQKLDHHLTLLPQPLLARHWWLDGSTLDLTTDLEANVEAVAAFAGAREARAFRRFHDLSARLYDAFDRPMMRAARPDLRAIATGALKAPRTWPALLPGMTLDRLLRLFFRDRRLRQLFGRYATYVGGTPYGAPGVLALIWAAEARGVWAIEGGMHRLALALARLADDQGVRLRYGAPVARILRQGGRATGVQLADGRTLPADHIVFNGDPAALLAGCLGDGPQDAVPEDRIHPRSLSAWVWSYAARASGPPLVHHNVFFADDPRREFGPIAAGQMPEDATLYICAEDRSGGQLPDGPERFEIIMNGPPGRPAKPEDFAQCRSRTFDRLRQFGLTFDPVPGETSLTAPSGFASLFPASQGSIYGLSPHGALASLKRPLARTALPGLWLAGGGAHPGAGVPMAALSGRHAAEAILADLASRSRLEHHHHHH”, the “soluble on expression in E. coli” value was “not soluble”.

As for “MAIGKKVSKKTPLLLAADSHKNAAKMPCFLLQAHRIANTVIAGWHGQRKRGNGENFWQFRPYVEGESITRIDWRRSARDGHTYLREHEWEKTQTVWIWPDQSASMHYCSCFSQTSKDNYAIILALTLATLLARSGENIAIPTLMPPTMAPNVVERMALALVNRHTENPFPDFSTITRFSHVIIMSDFLDSPEKIIQNLTVLSAKQITVHLIEVADPAEEHFPYAGHTEFFDPETKEKRILGKAENSREHYCKLYQARRQELTNFCTRQGWTYHVSKTDRPLTEVILRLANKIGISPSHNRRSL”, the “soluble on expression in E. coli” value is listed as “not soluble”.

On to “MVDLGFSLYPERYDVTKSKAYIDLCHSYGAKRLFMSLLQLAPADHQMFHCYAELIAYANQLGIRVIADVSPSFISQAGWSDQLIERAHAFGLAGLRLDEALPLAEIVTLTRNPFGLKIELNMSTDKQLLMSLLATDAERSNIIGCHNFYPHEFTGLSWQHFKDMSRFYHEHDIETAAFITAQSASEGPWLLAEGLPTVEDHRHLPIGLQVELMKAIGTIDNILISNQFISEEELAACTQALARPVTTIKVRPIIDLTEVEEQIIGYPHCYRGDVSDYVIRSTMPRLVYAQESIAPRDQSKEVKRGSIIIDNDRYHRYKGELQIALKNFTVSSKANVVAEVREDYLSLLDDLRPWQEFCLEIAPS”, for which the “soluble on expression in E. coli” value is reported as “not soluble”.

As to “SLNKNARLQQENHFLSLQRSRYDNLCAAIEETRQVRHDIRHHYLQLAALAEKGDMEKIKEYLSSADRKMPSFDFHFCDNQAVDSILGYYSNHAKQEGIPFLAQIDIPDNFLGDEMDICLVLSNLLENAIEASLKTEDSRRKIVIKMYLHHTHILLIQAENNFDAKILEKNGVFQSTKHSGNGIGIQSIRHITERNGGASNFTYKDGEFTAKIMLRI”, the “soluble on expression in E. coli” value was “not soluble”.

In the case of “MKTKFYDYQGEHLILYFAGWGTPPDAVNHLILPENHDLLICYDYQDLNLDFDLSAYRHIRLVAWSMGVWVAERVLQGIRLKSATAVNGTGLPCDDSFGIPYAIFKGTLENLTENTRLKFERRICGDKASFERYQLFPARPFDEIHQELTALFAMIQQDKRIDLIHWANAWVSSRDKIFTPANQHQYWALRCAVQEIEGEHYVFSRFTHWSALWDH”, the “soluble on expression in E. coli” value is listed as “not soluble”.

“GPGSMARVTLREDFDDCAADYRILSVSADHFKEITCKVAACKQTGEEMGKINETHHEATTLMTMKGGSQLLLCDDERTFRVRRVEYSNTLLLAEAKAAKMHDTNGIIESDNASDAGEGREHVVVCSSERVFEVKPSVAYNDISQHLLESPLTLKELDTLGTVERSDENVEYIKREELENGTSSSAQRFYTFPQLVALNRSSARELAVILSDMGAVVFNGYVRLLKPALMREALRASLNFFDAYDTMSWEGVMEQLCPSVYPHIVLRAVRAAYGNATASGETPRGMAAFLQVPKVLQALAASVLLADDAEQNTQFTEAELQDKKLSKSVNRRGSLFPELDFDIFYDSWTSSIPSSLFADGTLPSQSDRNALLKFLYGSVIVVRNAEGDSHVGARAVWAPSNVLSTDVSLRTRQLFEIRPGRWEAEELRAYVAPLLDPGVAFDHIIVRYAKEYRVPGRPVMYGNLS”: the “soluble on expression in E. coli” value is reported as “not soluble”.

On to “MNNAKTAVTSRSVISLNSPIFLRQFYFEILNRLQVSSIIPKSKSEYVDAHMIRVSIEPQPTAFAYVFEYSTISTEPDNWNFAGASSKPEATFSILDPCRDYQFRVIIVIRSSNPAAVFDIIRPRPIPVQLPPFILTQPQISIEMPRVNNFNASGDLKLYVKWSLPYGYIDGDIYSYESPALYPIQCSTPEGEIPTPRIEIVKGGGRLAVWLPPSVLEARCRMWVEVRMLPRCVRLEPFNIQKNIEIDCSKNPSLDVCSKGR”, for which the “soluble on expression in E. coli” value is recorded as “not soluble”.

Regarding “MNVPFWTEEHVRATLPERDAESHKGTYGTALLLAGSDDMPGAALLAGLGAMRSGLGKLVIGTSENVIPLIVPVLPEATYWRDGWKKAADAQLEETYRAIAIGPGLPQTESVQQAVDHVLTADCPVILDAGALAKRTYPKREGPVILTPHPGEFFRMTGVPVNELQKKRAEYAKEWAAQLQTVIVLKGNQTVIAFPDGDCWLNPTGNGALAKGGTGDTLTGMILGMLCCHEDPKHAVLNAVYLHGACAELWTDEHSAHTLLAHELSDILPRVWKRFELEHHHHHH”, the “soluble on expression in E. coli” value is “soluble”.

For the sequence “MLTLAEKLLLIGLNDETGKVHYQASTALPYGLAGAVLADLMLLGKVELQGKNIVVVDPKPVGQPIFDKALHIINKTPRKRNAKYWVQRLKRDLKTLRQDVLTLLIEQGILKEEKRKILGLFETRTYPAVDGEMEEQVKEKLRVLVLQPTEIEENKELAQERTLVLLSLVNACDLLRQVFDRQEARVVKKQVKHLTKDVPVSKAVKEMVDAINASVVLAITSAAVVTSSSSSSNLEHHHHHH”, the “soluble on expression in E. coli” value is listed as “soluble”.
